For one sequence, activity (fold depletion) results are on record in patent US20150259684.

This data set has as its target T1, NM Cas9 (Neisseria meningitidis) (UniProt C9X1G5).
T1 sequence: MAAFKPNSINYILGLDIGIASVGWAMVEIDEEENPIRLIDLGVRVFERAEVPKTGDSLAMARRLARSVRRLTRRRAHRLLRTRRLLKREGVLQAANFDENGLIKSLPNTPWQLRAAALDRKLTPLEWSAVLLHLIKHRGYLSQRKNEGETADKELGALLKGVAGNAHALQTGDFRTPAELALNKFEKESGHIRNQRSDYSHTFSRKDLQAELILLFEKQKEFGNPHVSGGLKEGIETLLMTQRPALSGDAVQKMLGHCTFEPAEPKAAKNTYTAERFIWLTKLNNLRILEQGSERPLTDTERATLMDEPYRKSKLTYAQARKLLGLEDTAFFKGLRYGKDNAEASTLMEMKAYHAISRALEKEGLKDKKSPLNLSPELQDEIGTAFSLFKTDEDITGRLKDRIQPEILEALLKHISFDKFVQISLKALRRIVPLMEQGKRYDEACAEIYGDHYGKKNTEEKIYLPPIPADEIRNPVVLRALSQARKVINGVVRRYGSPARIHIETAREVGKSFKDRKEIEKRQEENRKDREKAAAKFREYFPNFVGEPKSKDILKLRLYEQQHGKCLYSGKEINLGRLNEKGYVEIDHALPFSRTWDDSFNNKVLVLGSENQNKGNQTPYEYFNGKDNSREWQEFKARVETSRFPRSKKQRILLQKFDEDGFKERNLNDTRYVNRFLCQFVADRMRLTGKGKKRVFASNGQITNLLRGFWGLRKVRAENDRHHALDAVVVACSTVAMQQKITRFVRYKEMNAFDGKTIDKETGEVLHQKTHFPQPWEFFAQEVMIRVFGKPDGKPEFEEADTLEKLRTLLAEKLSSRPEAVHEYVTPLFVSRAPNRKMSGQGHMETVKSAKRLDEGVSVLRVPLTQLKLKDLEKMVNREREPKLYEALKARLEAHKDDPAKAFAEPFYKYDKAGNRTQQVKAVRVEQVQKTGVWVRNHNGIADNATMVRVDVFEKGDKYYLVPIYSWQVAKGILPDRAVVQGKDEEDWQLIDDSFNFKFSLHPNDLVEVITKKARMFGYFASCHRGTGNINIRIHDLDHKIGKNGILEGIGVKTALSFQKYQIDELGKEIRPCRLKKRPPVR
The data set can be described thus: cell_activity. As to conditions: PAM NCCAGGTN depleted only 4-fold; protospacer for this value not stated.

“UACCAUCUCAAGCUUGUUGAGUUGUAGCUCCCUUUCUCAUUUCGCAGUGCUACAAU / TACCATCTCAAGCTTGTTGANCCAGGTN / NACCTGGNTCAACAAGCTTGAGATGGTA” displayed an activity (fold depletion) of 4.
